No end group written: not given here.

The values below come from paper PMC7954794, “Protein context shapes the specificity of SH3 domain-mediated interactions in vivo” (Nature Communications, 2021).

The target of the assay is T1, NCK2 full-length recombinant protein (mouse, WT, tag-free) (mouse, UniProt O55033 1-380).
T1 construct: NCK2, mouse, full-length recombinant; also called WT NCK2; NCK2 1|2|3; source: E. coli BL21 (DE3), purified (GSTrap, TEV cleavage, HisTrap)
Kind of assay: fluorescence polarisation; 40 nM fluorescein isothiocyanate-conjugated peptide, NCK2 titrated (0-150 μM for CD3ε, 0-175 μM for PAK1); 17 mM Tris-HCl pH 8, 100 mM NaCl; one-site total binding model; triplicates. The following applies: both partners purified. In general terms: Polarisation of emitted light reports the rotation of a fluorescent probe.

T1 sequence (O55033 whole entry): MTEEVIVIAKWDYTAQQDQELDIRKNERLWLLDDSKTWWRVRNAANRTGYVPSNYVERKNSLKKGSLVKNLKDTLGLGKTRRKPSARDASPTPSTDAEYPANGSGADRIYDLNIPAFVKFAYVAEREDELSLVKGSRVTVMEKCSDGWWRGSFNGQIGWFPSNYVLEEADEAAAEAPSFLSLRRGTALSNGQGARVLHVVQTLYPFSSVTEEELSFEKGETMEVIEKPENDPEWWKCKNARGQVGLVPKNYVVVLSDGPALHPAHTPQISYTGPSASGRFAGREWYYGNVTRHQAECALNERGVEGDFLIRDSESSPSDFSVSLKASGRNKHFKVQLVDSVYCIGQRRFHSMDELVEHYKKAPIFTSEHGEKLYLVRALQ

B1: Cd3ε peptide (RGQNKERPPPVPNPDY), fluorescein isothiocyanate-conjugated (peptide)
peptide: RGQNKERPPPVPNPDY
modifications: also: fluorescein isothiocyanate-conjugated (position not given here)
notes: peptide of CD3 epsilon, ligand of NCK2 SH3-1; also called CD3Ɛ
For B1, the binding result was “binds”.

B2: PAK1 peptide (DIQDKPPAPPMRNTST), fluorescein isothiocyanate-conjugated (peptide)
peptide: DIQDKPPAPPMRNTST
modifications: also: fluorescein isothiocyanate-conjugated (position not given here)
notes: peptide of PAK1, ligand of NCK2 SH3-2; also called PAK1 target peptide
As to B2, the binding result is listed as “binds”.
